The values below come from PMC9576894.

In the experiment the target is MUC4 glycopeptide. Nature of the experiment: peptide or protein array; glycan microarray, components printed on epoxy slides; re-expressed antibody in solution at four concentrations from 1.5 to 100 μg/ml on the 873-component array; PBS pH 7.4, 0.05% Tween-20, 3% BSA; 37 °C, 3.5 h; detected with Cy3 anti-human IgG; apparent KD estimated by the method of Gordus and MacBeath.

B1: ADI-47299 (antibody, V domains shown)
VH: QVQLVQSGGGVVQPGRSLRLSCAASGFTFRLYSMHWVRQAPGKGLEWVGVISHTVTDKLYADSVKGRFSVSRDNSKNTLFLQMDSLRAEDTAVYYCARDGFDYWGQGTLVTVSS
VL: EIVMTQSPLSLPVTLGQPASISCKSSQSLVYSDGDTYLNWFQQRPGQSPRRLIYKVSKRDSGVPDRFSGSGSGTDFTLKISRVEAEDLGVYYCMQGTHWPLTFGPGTKLEIK
As for B1, the Kd is over 1000 nM.
